The assay has as its target T1, EphA2 on cells (MDA-MB-231, MCF-10A, A549, MCF-7 EphA2 transfectants, prostate cancer tissue) (human, UniProt P29317 24-976).
T1 construct: whole, on cells; The other cells are human cell lines; also called EphA2受体
Nature of the assay: immunofluorescence staining of cells.

T1 sequence (P29317 24-976): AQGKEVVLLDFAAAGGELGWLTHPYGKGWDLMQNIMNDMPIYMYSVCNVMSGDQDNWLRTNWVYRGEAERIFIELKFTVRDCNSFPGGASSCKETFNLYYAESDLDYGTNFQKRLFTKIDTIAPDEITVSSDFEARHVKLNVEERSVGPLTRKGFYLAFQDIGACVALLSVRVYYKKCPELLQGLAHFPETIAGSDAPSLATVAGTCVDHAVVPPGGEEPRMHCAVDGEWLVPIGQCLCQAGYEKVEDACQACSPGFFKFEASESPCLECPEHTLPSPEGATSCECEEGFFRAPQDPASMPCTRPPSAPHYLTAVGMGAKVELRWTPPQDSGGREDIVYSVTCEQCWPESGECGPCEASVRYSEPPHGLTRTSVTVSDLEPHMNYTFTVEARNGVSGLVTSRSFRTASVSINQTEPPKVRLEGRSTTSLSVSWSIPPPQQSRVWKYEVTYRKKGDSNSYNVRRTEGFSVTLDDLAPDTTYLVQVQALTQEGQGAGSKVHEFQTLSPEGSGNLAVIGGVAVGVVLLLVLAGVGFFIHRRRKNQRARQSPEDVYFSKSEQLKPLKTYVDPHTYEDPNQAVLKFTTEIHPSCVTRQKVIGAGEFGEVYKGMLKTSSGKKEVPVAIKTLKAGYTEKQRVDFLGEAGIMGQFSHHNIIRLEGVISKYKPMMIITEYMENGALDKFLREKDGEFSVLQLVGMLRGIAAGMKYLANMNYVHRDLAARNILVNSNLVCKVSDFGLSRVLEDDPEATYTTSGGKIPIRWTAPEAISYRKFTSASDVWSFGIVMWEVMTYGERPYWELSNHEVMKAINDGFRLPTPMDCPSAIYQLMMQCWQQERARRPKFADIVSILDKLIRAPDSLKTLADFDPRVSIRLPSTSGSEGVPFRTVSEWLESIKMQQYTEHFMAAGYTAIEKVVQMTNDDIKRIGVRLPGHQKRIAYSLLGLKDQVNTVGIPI

B1: EA2 anti-EphA2 monoclonal antibody (hybridoma strain EA2.31, ATCC PTA-4380) (antibody, V domains shown)
VH: DVKLVESGGGLVKPGGSLKLSCAASGFTFSSYTMSWVRQTPEKRLEWVATISSGGTYTYYPDSVKGRFTISRDNAKNTLYLQMSSLKSEDTAMYYCTREAIFTYWGQGTLVTVSA
VL: DIKMTQSPSSMYASLGERVTITCKASQDINNYLSWFQQKPGKSPKTLIYRANRVDGVPSRFSGSGSGQDYSLTISSLEYEDMGIYYCLKYDEFPYTFGGGTKLEIK
notes: Mouse hybridoma monoclonal
With B1, the binding result is “binds”.

The values are drawn from patent CN1905899A (dated 2007).
